The DeepSol protein solubility set

test: soluble on expression in E. coli; label from the status in PepcDB or PDB records

Soluble on expression in E. coli, not soluble:
MGSDKIHHHHHHMLKKYLISLDKDIQRRELFFSQKNTEDFQVFSAINTMQKDWDELAAIFNIEQFKAHYFRNVTKGEIGCTLSHLSVYQKIVEDNDIAEDSYALVCEDDALFHSDFQQNLTALLSEKLEAEIILLGQSKINDFNDFDLEINYPTTFSFLCKKTGDVNYAFPYKSYFAGTVGYLIKKSAARRFIQQISQNKPFWLADDFLLFEQNFNIRNKVVRPLIVIENPVLISNLESVRGSLSNNLLKKLMKYPLKKIFAIKKNLAN
MGSDKIHHHHHHMLKRLLDYNEGEEFDLVLMVKNSELRQDKRGKHYLLMQLADSSGSIRANYWQAKAEDASRFNAGTVVEASGMIEDYHNHDQIKLFSIHPVSPDDQADLSQLVATAPEKPAEMEKEIKDFVAQIDNKNWHDLVDFLLKKWSSRFFAYPAGKSNHHAYKGGLAFHTLTMLKDARGLADNYPAVNRSLLYAGCILHDMGKVLELSGPVATQYTAEGNLVGHLVLIDEQLMLAAQELKIDLASEDLLLLRHMVLSHHGRYEYGSPKLPALLEAELLHRIDDLDAAVNAITTVNCPRPSRGNSPRR
MGSDKIHHHHHHMLLTRTQIRRLVYAHGREILEHDHMAIERVCYQHGVVTTFAHSIRVACLSVWLADRLHLWNRVDLRSLIRAALLHDYFLYDWHDWDNGTHRLHGFTHGETAMRNAIRDFKLNQIERDSIEHHMFPLTPYPPKYIEGYLVTAADKISATKETLSFDRFDKPASEQPTDRS
MGSDKIHHHHHHMLLYIHGFNSSPFSDKAVITAKYMAQHHPSVIFHQPQLPNTPKAAMALLTTYVEAAIDAKEPLAYIGSSLGGYFASYLAETYGGKAVLVNPAVKPFELFDEFMGPQFNPYTEQHYLVVPEHKREVAEFNTAVIRNPDRFLVLLQTGDEVLDYREAVNKYHHCQLRIEAGGDHSFVGYESHLQTVSQFLHLP
MGSDKIHHHHHHMLMTPDEDRITQLYEAFNRRAFDRCIAMLAPDVSWPDELEDRRLEGLDAVRAYLDHAIAPLRVCYQPIALFTPSPGQIEVLARQTVLSATDGSLWSSLRVRHRYTIKDGLFTHLESEQNYTAPTFEGVDRLLRRLYDAINAGDVDGAAACFGDHACFEDKLEDGPISGPAAIRAHFEHLFATLQVTATMCDYALEPDDRVRVRLQVEARGATGRLWHDGGVTAWYRLEGGLIVGQDVDDSGEEAP
MGSDKIHHHHHHMLNDANLQAADMPDTEFTLTRNGFGRLVLTLGDGTAHEGVVPVRAFPIGAPDDGIGMMSTDGHELAWIPRLDRLPAPQRAMVEEELAAREFMPEIQRIVGVSTFATPSEWTVQTDRGQTTLVLRGEEDIRRLAGTTLLISDSHGIHYLIRDLMALDRASRKILDRFL
MGSDKIHHHHHHMLNQQWLTTFIKLVELGHFTHTAEQLFMTQSGVSQQIKKLEQQAGAPLLNRIGKGFELTQAGMALLAHAQALVQQQAELLASFHQDNAYSGECKLACSGSLAMLIYPKLIDRQLQYPELKMSLEAAPNQRIIDRVLDNSIDVGIITQEFAHPELSLRLLGSQRLCLVLPNVWEGRLPRLIEYNFLTELGMIDHPDGMHYWQHFVECHFPQHLPQASKIKRLSYVNQLSQILLPVAKGLGFAVLPEFAIKQVSARDGVLEGLFRVPDASLSAHVASESLYLIQKRHRPLALRYQEIITLIKGLIS
MGSDKIHHHHHHMLNTIGERQKQLLKLLRGSRPGLSVDELSKGLEITRNAVRQHLSSLEGAGLVTAGNTRPSGGGRPQQLYVLTELGKESFPRQYSWLAQLVLASVRREEGVENMGKRLSEIGAGIAEQIRGQYPDLNTKEEKIDKLTEVMDQLGYNAKSATLPNGEKVIEADNCVFHQMAAKDMEICHLDRGLMETFTDSKVEQHECMARGGELCRFRFVSKKE
MGSDKIHHHHHHMLRFVMNDDQQSCLVSRLSRFVALTEAECAFIAEMEKDEHERRKGRPVVQVGDPTEGIMVLKSGWAVVKADSSDGRSQILRVYLPGEVMGLAEIGSSHANHRIIMQTDGKICPFPRAGLAPLYSDYPRLGALLTAVGSLDQIALRHHASSLGAMDATGRLKFWLLQLRSRLEVANVGLGNRFRVPFSQVEIGQAVGLTSIYVNKLLRRFMDDGDLEIERPYFRLLNREQWERDCEYVNPFVDMDTSWFPPAYPEIHDSAP
MGSDKIHHHHHHMLSDKQKKHILVNRDGLKYYTVEGLEKVHEEMLRLLLIIDTIAKENNIPYWIDGGSLIGIVRHKGFIPWDDDLDISLLKKDYLRLIKEISMYCEMHNDVALFYNEPLVEHTCNFFASKKVFSRTQGSCVLVPVKIDIRPVNCIVKNKDNVIENNIYRDTANYIIFGKSYGYMKKTLSHKNEQMDFLEYYNYKYGLVDSGLENVIMVHPYFEFSNTFELTYNDLFPLKMLQFENMLLPVPNNYDYLLKELYGDYMSYPNICHRAPVACQIYQRQLKDNRFNLCLSMFKHTNRGLLYRMRIILVQIRLLGVFEYMKIKIYE
MGSDKIHHHHHHMLTASVNEAEPCAEPQRPVIRLHPVTADDAPKLPATRCSTCAIRNVCMPAGLTPIEFARLDAMVCTTRHVKRGDALFRTHDTFQSIYAVRTGSFKTVVMHRDGREQVTGFQIVGETLGLDGVCGGRHNSDAIALEDSTVCIIPFAQLEAVCREVKPMQHHVHQLMSGEIVRESSLMMLLGTMTAEQRVAAFLLNISERFQKRGYSASEFNLRMTREEIGCYLGMKLETVSRMLSKFQRDRLIAPRGKQIRITDPQGLARV
MGSDKIHHHHHHMLVRQEALSSKMSIKDLPSSSPLPNANLVLVFGSVRRFSDGKLPTQLKERYPAAQIVGCTTSGEIGPHGVSDDSLQITAIAWDNTMQRVTYARANNMQTSAETAINLAKQLKSDSLRTILVFSDGLHINGSELLQGFQSVLGDIPIVGGMAGDNAEFSRTLQLLNDSIEEGLVVAIGLYGDKLITASGALGGWKPYGPPRKITRSEKNVVYEMDGKPALPLYRMYIGEQNAKALPGSGLRFPFAVIEEGKREVEKVRTLLAIDPEENSLTFAGNVEEGETVRLCQTTHDRLVEGAGGAARLVTANLDTSQPGLALCVSCVGRKLVMAEQIADEIQAVQQTLGSQTALTGFYSYGEFCPRPNTTDNVLHNQTMTIGYLSEAL
MGSDKIHHHHHHMLVYPSGIDLSTSTLRYLSDLLRARRRERGTRWRRLTTDRQALLALAHLRCGHTYAQLAAGFGIGLATVYRYIVEAVEVLAALAPTLQQAMTFAANKAFVILDGTLLHIDRIAADRPYYSGKHKRHGMNVQVIADAFGRLLWASPALPGAVHDIKAARIHGIIEALTQAGIRTWADKGYQGAQGTIRVPYRGRWSTLPAGKRAVNSSHAKIRAVGEQANATLKSWRLLRKLRCSTTRITDIVKAVLALHLATAA
MGSDKIHHHHHHMLYQLHEMQRAFLRPLAAFTDASSQLFTHPYSPLAYMPMSRQLAAGCELVHRIGKEYQKPAWNLPATEIQGKRVAVIEAVVLDKPFCRLVHFQRDVRRTAGRADPRVLLVAPLSGHHATLLRDTVRALLPAHDVYVTDWVDARMVPQDAGPFHLDDYVRYIQAFLRHLGPDTHVISVCQPTVPVLAAISLMASANDPCQPRSMVMMGGPIDPRESPTQVNRLATTKPYAWFESQLIHAVPAPYPGAGRRVYPGFLQHAGFMAMNPDRHLKSHYDFYLDLLRGDDGDAEAHRRFYDEYNAVLDMPAEFYLDTIRTVFQEWLPGGTWEIDGQLVRPADIRKTSLLTVEGELDDISGQGQTRAAIKLCSGIPAARKSHYTAVGCGHYGIFSGRRWRELICPKIAAFIRQS
MGSDKIHHHHHHMMADERIEVLKDILLELHHGASAESVQERFNQHFKGVSAIEISMMEHELMNADTGITFEDVMGLCNVHANLFKGAIADVDVPDAEQEGHPVKVFKDENLALRAAIMRIRRIIENYTKPENEDFRQEILKGLKHQFDLLGQFYHHYTRKEKLFFPIMERYGHDSPPKVMWGVDDDIRDLFKDAKATLAKLPDGSIEELSQKFEAFAKEFEEMIFKEEAILLMILLESFTQDDWLQIASESDAYGYAILKPTEKWIPHRESFDNEADADTSDNQLADALNQVQDANSPEGTNTKVINTPEGQFTITFKPKEKEAAADRTTQQPFGNGYLSVEQANLILNHLPLEITFVNKDDIFQYYNDSVPAAEMVFKRTPSQVGRNVELCHPPKVLDKVKKVFELLRNGQRDKVNMWFQSERLGKFVYVTYAAVRDQAGDFQGVLEYVQDIKPFFELDSEFNRDI
MGSDKIHHHHHHMMAFITVKPEIKNNLANVAKELKIDEELLKSANRSAQKHQLYCPGYVIEEHSGKELQTIQDIKRFLQPRQLKLSDSWIEQEKIYDDSAVEKEIKKIIDVFPFVSCREIGRSVLGRPIWELKAGGEHAVKKVHMNASFHANEWITTSVLLKWFKEYCMSLCCNSPFFGFSPIKLFNSTSLSLVPLVNPDGVDLVLNGSEVMGARRDELERLNEHRPNFNEWKANINGVDLNKQFPSLWEIEKYRKPTAPSYRDFPGISPLTEPESIAMYRLITENPPDRLLALHTQGEEIYWGYKGLEPEESAAVIKEFEELSGNIYKGVRDIDSYAGFRDWFIHHYFKEGYTVELGKGQNPLPFQQFSHIYNATSGILWRALFFHE
MGSDKIHHHHHHMMAKLVVCIIDGMADPPPPAGGVTPLAAAHTPHCDTLARHSVAGLCHVIQPEAVPGSEAGLSALLCCEAAASIARGPVEALAQGDPVAPHETVWRLNLVSLGPRGNYYNPAPLLDAATETAARKMLDRALGTQGYSLLGGKGFRHLCAGTEPPVLRDGPQDVCGMTPDTGQADLNSYCPRLARAMTEANVLFRRSRMDLAVWPWGAGTMPDLPGFAETTGQTGALAGGVPLARGLALALGMTAPSIAGATGGIDTDLGAKTRAAIALAAGHDVVYLHVEAPDLHAHALDRVAKRRAIERIDAEVVGPLHMALPDATLLITCDHATDCATGRHMAIPVPFILHKPDGPQDGIATFSEAASARTGIRIDSAATLVRLALAD
MGSDKIHHHHHHMMDARRNGLVLLALLLLTQTTISAQTDSMGKDVPIDSVSVATSDSLQTKRGFFKKFLDYFNDANKEKKNKKFDFSVIGGPHYSSDTKFGLGLVAAGLYRTDRNDSILPPSNVSLYGDVSTVGFYLLGVRGNHLFPQEKYRLNYNLYFYSFPSLYWGRGYDNGANSDNESDYKRFQAQVKVDFMFRVAKSFYIGPMAVFDYIDGRDFEKPELWEGMSARTTNTSLGLSLLYDSRDFLTNAYQGYYLRIDQRFSPAFLGNKYAFSSTELTTSYYHPVWKGGVLAGQFHTLLNYGNPPWGLMATLGSSYSMRGYYEGRYRDKCAMDAQIELRQHIWKRNGVAVWAGAGTVFPRFSDFTPKHILPNYGFGYRWEFKKRVNVRLDLGFGKHQTGFIFNINEAF
MGSDKIHHHHHHMMGEFEAIRPYSDAEVPAVLQRLLSDDAFLGALVRYRFPRLAGPLGWLLKPLIAHRLAREVTGIRSVATLQDKFEPYVDHTIEKATDGVTYSGVNRLKPGCAYLFIANHRDIVMDPAFVNYAVYHAGLPTPRIAIGDNLLQKSFVSDLMRLNKSFIVHRSLSGRREKLAAYQTLSAYINHSIREDRQSVWIAQAEGRAKDGDDRTDSAILKMFHMSRKDEPFAEMVRALHFIPVSISYEYDPCDLAKARELHTRASTGEYRKAPGEDDASIALGITGYKGRVHINFGAELEGEFSDAKQLAAELDRQILGNYRLFPVHYLAYEMSENRDPGLAVPTAESLFGSEELEKARKEWNRRLEQCPAEQRSWLVLQYANPVLNQYRIKQQS
MGSDKIHHHHHHMMGYNLTTPFLIYQWNFPMFPWDQIDTVLLDMDGTLLDLHFDNHFWLSLVPGTLSRMHGISAEAATSHVRAAYDKVAGTLEWYCLDYWERELGLDIMALHRTLVDRIQLRQDSMPFLTALADAGKRRILLTNAHPNSLALKLEHTELASGLDEMLSSHQTGHPKESPLFWQAVFARFELNPRRCLFIDDSEAILLAAKHAGVGFQLGISNPDSQQPNKVFHDFPAIHDYRLLLNE
